Assay results reported in patent US20170327594A1 (UNIVERSIT T STUTTGART, published 2017).

Tests used:
[1] = molecular target: T1, EGFR on tumor cell lines (UniProt P00533 25-1210, limits assumed); experiment: cell-based or functional assay
[2] = molecular target: T2, recombinant TRAIL-R1 (receptor-Fc fusion protein) (UniProt O00220 24-239, limits assumed); experiment: ELISA on recombinant receptor-Fc
T2 construct: also called TRAIL receptor 1; not shown: Fc part

[3] = molecular target: T3, HER2-Fc fusion protein (UniProt P04626 23-652, limits assumed); experiment: ELISA on immobilized HER2-Fc
T3 construct: extracellular domain; also called Fc fusion protein of the extracellular region of HER2; not shown: Fc part

[4] = molecular target: T1, EGFR on tumor cell lines; experiment: cell-based or functional assay; remark: listed apart in the source
[5] = molecular target: T4, EGFR-Fc fusion protein (UniProt P00533 25-645, limits assumed); experiment: ELISA titration on immobilized EGFR; the scFv is the weaker comparator
T4 construct: extracellular domain; also called Fc fusion protein of the extracellular region of EGFR; immobilized EGFR; not shown: Fc part

[6] = molecular target: T4, EGFR-Fc fusion protein; experiment: ELISA on immobilized EGFR-Fc
[7] = molecular target: T1, EGFR on tumor cell lines; experiment: flow cytometry, Colo205 and NCI-H460 cells
[8] = molecular target: T1, EGFR on tumor cell lines; experiment: flow cytometry, NCI-H460 cells
Procedure: Bound proteins were detected with a FITC-labelled anti-His-tag antibody.
Furthermore, the antibody-MHD2 fusion proteins were analyzed by flow cytometry for binding to different tumor cell lines expressing various amounts of EGFR and HER2 (FIG. 4b).

[9] = molecular target: T5, HER3-Fc fusion protein (UniProt P21860 20-643, limits assumed); experiment: ELISA on immobilized receptor-Fc
T5 construct: extracellular domain; Negative control; also called Fc fusion protein of the extracellular region of HER3; not shown: Fc part

[10] = molecular target: T4, EGFR-Fc fusion protein; experiment: ELISA on immobilized receptor-Fc

B1: scFvEGFR-EHD2-scTRAIL (other)
chain: DYKDDDDKGGGGSAAQPAMAEVQLVESGGGLVQPGGSLRLSCAASGFSLTNYGVHWVRQAPGKGLEWLGVIWSGGNTDYNTPFTSRFTISRDNSKNTLYLQMNSLRAEDTAVYYCARALTYYDYEFAYWGQGTTVTVSSGGGGSGGGGSGGGGSDIQLTQSPSFLSASVGDRVTITCRASQSIGTNIHWYQQKPGKAPKLLIKYASESISGVPSRFSGSGSGTEFTLTISSLQPEDFATYYCQQNNNWPTTFGAGTKLEIKRAAAGGSGGDFTPPTVKILQSSCDGGGHFPPTIQLLCLVSGYTPGTINITWLEDGQVMDVDLSTASTTQEGELASTQSELTLSQKHWLSDRTYTCQVTYQGHTFEDSTKKCADSNGGSGGEFTRGTSEETISTVQEKQQNISPLVRERGPQRVAAHITGTRGRSNTLSSPNSKNEKALGRKINSWESSRSGHSFLSNLHLRNGELVIHEKGFYYIYSQTYFRFQEEIKENTKNDKQMVQYIYKYTSYPDPILLMKSARNSCWSKDAEYGLYSIYQGGIFELKENDRIFVSVTNEHLIDMDHEASFFGAFLVGGGGSGGGSTSEETISTVQEKQQNISPLVRERGPQRVAAHITGTRGRSNTLSSPNSKNEKALGRKINSWESSRSGHSFLSNLHLRNGELVIHEKGFYYIYSQTYFRFQEEIKENTKNDKQMVQYIYKYTSYPDPILLMKSARNSCWSKDAEYGLYSIYQGGIFELKENDRIFVSVTNEHLIDMDHEASFFGAFLVGGGGSGGGSTSEETISTVQEKQQNISPLVRERGPQRVAAHITGTRGRSNTLSSPNSKNEKALGRKINSWESSRSGHSFLSNLHLRNGELVIHEKGFYYIYSQTYFRFQEEIKENTKNDKQMVQYIYKYTSYPDPILLMKSARNSCWSKDAEYGLYSIYQGGIFELKENDRIFVSVTNEHLIDMDHEASFFGAFLVG
notes: Homodimer: anti-EGFR scFv, EHD2, single-chain TRAIL, FLAG-tagged; also called scFv-EHD2-scTRAIL; anti-EGFR scFv-EHD2-scTRAIL
IC50 (nM), in vitro cytotoxicity, Colo205, no bortezomib, no cetuximab [1]: 0.5 nM
IC50 (nM), in vitro cytotoxicity, Colo205, with bortezomib, no cetuximab [1]: 0.14 nM
IC50 (nM), in vitro cytotoxicity, Colo205, with bortezomib, with cetuximab [1]: 1.43 nM
IC50 (nM), in vitro cytotoxicity, NCI-H460, no bortezomib, no cetuximab [1]: 0.32 nM
IC50 (nM), in vitro cytotoxicity, NCI-H460, with bortezomib, no cetuximab [1]: 0.02 nM
IC50 (nM), in vitro cytotoxicity, NCI-H460, with bortezomib, with cetuximab [1]: 0.15 nM
binding result [2]: binds
binding result [3]: no binding
cytotoxic activity against EHD2-scTRAIL, no bortezomib (NCI-H460, Colo205) [4]: ~20 fold

B2: anti-EGFR scFv (hu225) (scFv)
scFv: EVQLVESGGGLVQPGGSLRLSCAASGFSLTNYGVHWVRQAPGKGLEWLGVIWSGGNTDYNTPFTSRFTISRDNSKNTLYLQMNSLRAEDTAVYYCARALTYYDYEFAYWGQGTTVTVSSGGGGSGGGGSGGGGSDIQLTQSPSFLSASVGDRVTITCRASQSIGTNIHWYQQKPGKAPKLLIKYASESISGVPSRFSGSGSGTEFTLTISSLQPEDFATYYCQQNNNWPTTFGAGTKLEIKR
notes: also called monovalent anti-EGFR scFv; scFv directed against EGFR
binding result [5]: binds

B3: scFvEGFR-EHD2 (scFv)
chain: DAAQPAMAEVQLVESGGGLVQPGGSLRLSCAASGFSLTNYGVHWVRQAPGKGLEWLGVIWSGGNTDYNTPFTSRFTISRDNSKNTLYLQMNSLRAEDTAVYYCARALTYYDYEFAYWGQGTTVTVSSGGGGSGGGGSGGGGSDIQLTQSPSFLSASVGDRVTITCRASQSIGTNIHWYQQKPGKAPKLLIKYASESISGVPSRFSGSGSGTEFTLTISSLQPEDFATYYCQQNNNWPTTFGAGTKLEIKRGSLGGSGGDFTPPTVKILQSSCDGGGHFPPTIQLLCLVSGYTPGTINITWLEDGQVMDVDLSTASTTQEGELASTQSELTLSQKHWLSDRTYTCQVTYQGHTFEDSTKKCADSNGGGSGGGTGSEFAAAHHHHHH
notes: Bivalent homodimer: anti-EGFR scFv at the N-terminus of the IgE heavy chain domain 2, hexahistidyl-tagged; also called scFv-EHD2
binding result [6]: binds
binding result [7]: binds
binding result [3]: no binding

B4: scFvEGFR-MHD2 (scFv)
chain: DAAQPAMAEVQLVESGGGLVQPGGSLRLSCAASGFSLTNYGVHWVRQAPGKGLEWLGVIWSGGNTDYNTPFTSRFTISRDNSKNTLYLQMNSLRAEDTAVYYCARALTYYDYEFAYWGQGTTVTVSSGGGGSGGGGSGGGGSDIQLTQSPSFLSASVGDRVTITCRASQSIGTNIHWYQQKPGKAPKLLIKYASESISGVPSRFSGSGSGTEFTLTISSLQPEDFATYYCQQNNNWPTTFGAGTKLEIKRGSLGGSGGAELPPKVSVFVPPRDGFFGNPRKSKLICQATGFSPRQIQVSWLREGKQVGSGVTTDQVQAEAKESGPTTYKVTSTLTIKESDWLGQSMFTCRVDHRGLTFQQNASSMCVPDGGGSGGGTGSEFAAAHHHHHH
notes: Bivalent homodimer: humanized anti-EGFR scFv (hu225) at the N-terminus of the IgM heavy chain domain 2, C-terminal His6; also called scFvA-MHD2; scFv-MHD2
binding result [8]: binds
binding result [9]: no binding
binding result [10]: binds
